Consider one substance from article doi:10.1101/2021.01.06.425618.

Assay [1] concerns the target venus-PreIQ3-IQ-A1.3 F[-2]A (rat). Description: FRET or BRET. A general note: BRET reads energy transfer from a luciferase to a nearby fluorophore.
The target in assay [2] is venus-PreIQ3-IQ-A1.3 (wild type) (rat) (UniProt P27732). The assay is described as follows: FRET or BRET.
Chain of UniProt P27732 (P27732 whole entry): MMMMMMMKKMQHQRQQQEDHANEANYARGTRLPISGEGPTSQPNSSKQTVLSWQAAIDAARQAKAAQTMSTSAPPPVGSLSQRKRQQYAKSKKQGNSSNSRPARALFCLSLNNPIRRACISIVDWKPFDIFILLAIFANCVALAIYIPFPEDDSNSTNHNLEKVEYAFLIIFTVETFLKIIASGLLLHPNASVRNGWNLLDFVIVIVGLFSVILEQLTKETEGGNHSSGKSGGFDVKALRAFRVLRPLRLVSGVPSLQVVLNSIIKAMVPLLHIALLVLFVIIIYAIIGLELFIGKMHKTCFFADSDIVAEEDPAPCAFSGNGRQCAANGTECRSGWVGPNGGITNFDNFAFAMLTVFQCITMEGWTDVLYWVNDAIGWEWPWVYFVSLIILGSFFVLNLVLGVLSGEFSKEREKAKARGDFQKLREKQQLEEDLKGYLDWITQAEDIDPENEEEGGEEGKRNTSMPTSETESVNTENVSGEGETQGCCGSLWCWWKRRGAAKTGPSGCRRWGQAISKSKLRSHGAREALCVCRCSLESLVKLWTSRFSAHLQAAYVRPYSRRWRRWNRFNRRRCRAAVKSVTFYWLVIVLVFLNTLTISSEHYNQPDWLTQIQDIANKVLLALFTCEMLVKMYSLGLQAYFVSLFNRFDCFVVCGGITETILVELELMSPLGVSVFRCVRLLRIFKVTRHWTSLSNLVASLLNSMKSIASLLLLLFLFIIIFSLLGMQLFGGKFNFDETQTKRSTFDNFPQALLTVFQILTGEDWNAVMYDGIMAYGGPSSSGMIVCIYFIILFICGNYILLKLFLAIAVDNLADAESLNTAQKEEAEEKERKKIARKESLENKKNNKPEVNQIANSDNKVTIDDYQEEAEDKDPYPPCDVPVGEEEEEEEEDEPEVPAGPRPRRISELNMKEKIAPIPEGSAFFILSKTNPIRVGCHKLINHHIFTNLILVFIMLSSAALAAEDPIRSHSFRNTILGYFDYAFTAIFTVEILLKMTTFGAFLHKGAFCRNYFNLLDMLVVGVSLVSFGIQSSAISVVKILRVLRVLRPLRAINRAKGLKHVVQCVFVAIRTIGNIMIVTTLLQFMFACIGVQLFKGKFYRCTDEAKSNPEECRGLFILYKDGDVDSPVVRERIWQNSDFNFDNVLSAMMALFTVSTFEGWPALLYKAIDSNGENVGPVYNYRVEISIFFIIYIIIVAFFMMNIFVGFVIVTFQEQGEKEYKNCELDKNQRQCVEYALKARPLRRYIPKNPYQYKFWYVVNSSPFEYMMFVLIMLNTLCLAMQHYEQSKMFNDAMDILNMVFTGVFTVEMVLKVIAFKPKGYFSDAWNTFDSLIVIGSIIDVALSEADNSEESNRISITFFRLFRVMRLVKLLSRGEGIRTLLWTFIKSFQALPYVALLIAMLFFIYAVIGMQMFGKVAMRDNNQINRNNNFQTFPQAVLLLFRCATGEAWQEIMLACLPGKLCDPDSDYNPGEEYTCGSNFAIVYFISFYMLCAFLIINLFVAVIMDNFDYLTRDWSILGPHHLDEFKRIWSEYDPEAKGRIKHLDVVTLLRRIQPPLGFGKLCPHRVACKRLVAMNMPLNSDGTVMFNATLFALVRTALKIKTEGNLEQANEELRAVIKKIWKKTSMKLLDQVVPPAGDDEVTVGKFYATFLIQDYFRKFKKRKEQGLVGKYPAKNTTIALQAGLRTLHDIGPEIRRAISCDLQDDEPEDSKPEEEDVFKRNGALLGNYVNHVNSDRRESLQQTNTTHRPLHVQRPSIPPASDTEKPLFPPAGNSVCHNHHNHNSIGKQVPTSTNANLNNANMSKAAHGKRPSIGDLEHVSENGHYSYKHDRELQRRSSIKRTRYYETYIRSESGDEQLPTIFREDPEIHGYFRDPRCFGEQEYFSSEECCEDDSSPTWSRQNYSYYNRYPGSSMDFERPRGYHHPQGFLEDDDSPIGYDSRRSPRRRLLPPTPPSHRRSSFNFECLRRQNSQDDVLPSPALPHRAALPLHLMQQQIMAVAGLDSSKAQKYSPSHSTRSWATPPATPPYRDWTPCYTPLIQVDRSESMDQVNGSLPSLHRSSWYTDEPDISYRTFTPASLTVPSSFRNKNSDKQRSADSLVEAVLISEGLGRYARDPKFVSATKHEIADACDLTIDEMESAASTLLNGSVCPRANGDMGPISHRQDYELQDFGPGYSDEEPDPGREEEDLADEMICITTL

On to “Cerulean-ICDI1.4 (wild type) (from UniProt O60840 1-1977) (domain or fragment)”, for which the figures for the Ka in assay [1] and in assay [2] were 5.8e+06 M⁻¹ and 2.14e+07 M⁻¹, respectively.
